Experimental findings from article PMC9338922, “DltC acts as an interaction hub for AcpS, DltA and DltB in the teichoic acid D-alanylation pathway of Lactiplantibacillus plantarum” (Scientific Reports, 2022) are described below.

For data set [1], the target named is T1, DltA-∆P-loop mutant, C-terminal His6 tag (Lactiplantibacillus plantarum, UniProt Q88VM6 1-508, missing the loop region comprised between T152 and K160).
T1 sequence: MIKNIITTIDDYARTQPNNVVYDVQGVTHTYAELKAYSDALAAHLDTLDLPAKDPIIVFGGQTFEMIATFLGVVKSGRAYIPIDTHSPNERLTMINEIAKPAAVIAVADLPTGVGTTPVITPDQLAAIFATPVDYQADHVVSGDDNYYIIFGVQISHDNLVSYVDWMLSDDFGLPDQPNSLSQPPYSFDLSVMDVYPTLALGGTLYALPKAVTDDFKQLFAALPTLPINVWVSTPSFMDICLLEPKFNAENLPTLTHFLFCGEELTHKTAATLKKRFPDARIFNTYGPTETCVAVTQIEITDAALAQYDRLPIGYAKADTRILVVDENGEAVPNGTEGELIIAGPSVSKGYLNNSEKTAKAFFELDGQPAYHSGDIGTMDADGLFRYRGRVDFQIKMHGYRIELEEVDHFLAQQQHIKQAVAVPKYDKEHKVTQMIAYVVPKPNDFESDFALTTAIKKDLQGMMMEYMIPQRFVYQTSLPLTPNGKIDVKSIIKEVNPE
As to the kind of experiment: MST.

Data set [2] deals with T2, DltA-∆P-loop mutant, C-terminal His6 tag (Lactiplantibacillus plantarum, UniProt Q88VM6 1-508, missing the loop region comprised between T152 and K160).
T2 construct: DltA of Lactiplantibacillus plantarum, full length but missing the P-loop region comprised between Thr152 and Lys160, cloned in pT7-7; source: E. coli BL21 (DE3), purified (Ni-NTA, SEC)
T2 sequence (looked up): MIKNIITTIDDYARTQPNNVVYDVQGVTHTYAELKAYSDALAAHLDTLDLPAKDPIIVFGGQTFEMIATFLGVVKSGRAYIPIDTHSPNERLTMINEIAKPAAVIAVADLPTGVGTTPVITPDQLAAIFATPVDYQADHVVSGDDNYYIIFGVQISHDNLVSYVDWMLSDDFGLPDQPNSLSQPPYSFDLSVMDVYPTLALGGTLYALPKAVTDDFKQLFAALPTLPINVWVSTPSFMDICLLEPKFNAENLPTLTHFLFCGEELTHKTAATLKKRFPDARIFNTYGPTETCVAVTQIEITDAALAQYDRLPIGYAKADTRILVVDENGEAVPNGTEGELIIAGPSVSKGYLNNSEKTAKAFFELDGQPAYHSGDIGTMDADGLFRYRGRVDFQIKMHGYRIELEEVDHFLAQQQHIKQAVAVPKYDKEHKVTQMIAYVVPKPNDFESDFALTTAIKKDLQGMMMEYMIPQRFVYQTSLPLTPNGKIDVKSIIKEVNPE
As to the kind of experiment: MST; one protein labelled with NHS red fluorescent dye (RED-NHS Monolith NT kit); Hepes 25 mM pH 7.5, NaCl 300 mM, Tween20 0.05%; 22 °C; triplicate. As to conditions: both partners purified.

The target of data set [3] is T3, L. plantarum DltA, full-length wild type, C-terminal His6 tag (Lactiplantibacillus plantarum, UniProt Q88VM6 1-508).
T3 construct: DltA (D-alanine-D-alanyl carrier protein ligase) of Lactiplantibacillus plantarum, full-length wild type, 508 residues, cloned in pT7-7; the C-terminal domain is not visible; also called LpDltA; D-alanine-D-alanyl carrier protein ligase; source: E. coli BL21 (DE3), purified (Ni-NTA, SEC)
T3 sequence (looked up): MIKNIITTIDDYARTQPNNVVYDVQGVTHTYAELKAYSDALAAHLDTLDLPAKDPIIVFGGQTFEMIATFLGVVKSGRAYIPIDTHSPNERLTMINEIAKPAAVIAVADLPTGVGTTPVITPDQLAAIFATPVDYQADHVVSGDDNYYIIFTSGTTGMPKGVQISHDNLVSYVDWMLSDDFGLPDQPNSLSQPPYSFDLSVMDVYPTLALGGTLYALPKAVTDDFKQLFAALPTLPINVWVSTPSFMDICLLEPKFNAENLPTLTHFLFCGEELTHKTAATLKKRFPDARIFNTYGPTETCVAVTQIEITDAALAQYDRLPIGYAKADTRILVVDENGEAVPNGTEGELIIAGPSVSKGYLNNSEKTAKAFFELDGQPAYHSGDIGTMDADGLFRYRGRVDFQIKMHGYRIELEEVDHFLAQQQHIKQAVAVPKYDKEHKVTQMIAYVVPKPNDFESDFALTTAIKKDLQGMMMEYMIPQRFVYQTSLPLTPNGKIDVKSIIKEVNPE
Described as above. As to conditions: both partners purified.

Data set [4] has as its target T4, L. plantarum AcpS, full-length wild type, C-terminal His6 tag (Lactiplantibacillus plantarum, UniProt Q88Z44 1-120).
T4 construct: AcpS (acyl-carrier protein synthase) of Lactiplantibacillus plantarum, full-length wild type, cloned in pT7-7 (NdeI/PstI); AcpS is a trimer in the crystal structure of the complex (PDB 7R49); also called LpAcpS; acyl-carrier protein synthase; source: E. coli BL21 (DE3), purified (Ni-NTA, Superdex 200 SEC)
T4 sequence (looked up): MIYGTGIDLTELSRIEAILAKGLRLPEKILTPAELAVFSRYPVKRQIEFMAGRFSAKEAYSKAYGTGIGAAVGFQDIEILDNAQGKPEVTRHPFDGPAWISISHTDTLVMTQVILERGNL
Nature of the data set: SEC; purified AcpS mixed with apo- or holo-DltC1, mixture subjected to size exclusion chromatography. As to conditions: both partners purified. For orientation: SEC sorts molecules by how far they enter the pores of the column.

Data set [5] deals with the molecule itself. As to the kind of experiment: crystal structure; AcpS/DltC1 complex at 4.8 mg/ml, sitting-drop vapor diffusion at 293 K, 20% PEG3350 and 0.2 M sodium malonate; 1.88 Å.
The target of data set [6] is L. plantarum DltC1, full-length wild type, C-terminal His6 tag (Lactiplantibacillus plantarum) (UniProt Q88VM8). Described as above.

B1: holo-DltC1 (DltC1 fully modified by phosphopantetheine), C-terminal His6 tag (natural protein, Lactiplantibacillus plantarum, UniProt Q88VM8 1-80, looked up)
chain: MTMDDTKATVLSILADLTGEDVSSNMDVNLFDEGILDSMGSVQLLLELQNQLGIEVPVSEFQRSEWDTPAKIVAKVENLQ
modifications: phosphopantetheine (Ppant) covalently attached to Ser38, confirmed by mass spectrometry
notes: DltC1 (nc8_1734) of Lactiplantibacillus plantarum, wild type, co-expressed with wild type AcpS from pRSF-Duet1; also called Ppant-DltC1; Ppant-modified DltC; source: E. coli BL21 (DE3), co-expressed with LpAcpS from pRSF-Duet1, purified (Ni-NTA, SEC); 15N-labelled in M9 minimal media for NMR
Consider B1, for which the Kd – broadly, the constant that tells how readily two partners part at equilibrium – is 0.18 µM in data set [1] and 5.74 µM in data set [3]. Besides, in data set [2], the binding result is listed as “binds”.

B2: apo-DltC1-S38A, C-terminal His6 tag (natural protein, Lactiplantibacillus plantarum, UniProt Q88VM8 1-80, looked up)
chain: MTMDDTKATVLSILADLTGEDVSSNMDVNLFDEGILDAMGSVQLLLELQNQLGIEVPVSEFQRSEWDTPAKIVAKVENLQ
notes: DltC1 (nc8_1734) of Lactiplantibacillus plantarum, full length, catalytic Ser38 mutated to Ala, cloned in pET-28a(+); source: E. coli BL21 (DE3)-RIPL, purified (Ni-NTA, SEC); 15N- or 13C,15N-labelled in M9 minimal media for NMR
Turning to B2, the binding result in data set [2] and in data set [4] was “binds” throughout. Besides, the equilibrium dissociation constant (Kd) in data set [3] was determined as 8.89 µM.

B3: L. plantarum AcpS, full-length wild type, untagged (enzyme, Lactiplantibacillus plantarum, UniProt Q88Z44 1-120, looked up)
chain: MIYGTGIDLTELSRIEAILAKGLRLPEKILTPAELAVFSRYPVKRQIEFMAGRFSAKEAYSKAYGTGIGAAVGFQDIEILDNAQGKPEVTRHPFDGPAWISISHTDTLVMTQVILERGNL
notes: AcpS of Lactiplantibacillus plantarum, full-length wild type, pT7-7 with a stop codon before the TEV cleavage site and the His6 tag; also called untagged LpAcpS^WT; untagged AcpS; source: E. coli BL21 (DE3); lysate mixed with Ni-NTA-purified DltC1, complex purified (Ni-NTA, Superdex 200 SEC)
On to B3, for which, in data set [5], the stoichiometry N (usually the number of molecules, sites or subunits per partner or assembly) amounted to 3. The same molecule registered a stoichiometry N (AcpS:DltC1 (3:3)) in data set [6] of 1.
